Patent US20260124223A1, “CANCER IMMUNOTHERAPIES” (Northwestern University, priority 2022, published 2026)

How the values were obtained:
[1] = target: human FcγRIIB protein (his-tagged) (human) (UniProt P31994); test: SPR (Biacore T200), his-tagged receptor captured on anti-His CM5 chip, antibody injected
[2] = target: human FcγRIIIA F158 protein (his-tagged) (human) (UniProt P08637); test: as above
[3] = target: human FcγRIIIA V158 protein (his-tagged) (human) (UniProt P08637); test: as above
[4] = target: mouse FcγRIV protein (his-tagged) (mouse); test: ratio of SPR binding to mouse FcγRIV against inhibitory mouse FcγRIIB
mouse FcγRIV protein (his-tagged) (mouse), sequence (A0A0B4 entry or part of it limits assumed): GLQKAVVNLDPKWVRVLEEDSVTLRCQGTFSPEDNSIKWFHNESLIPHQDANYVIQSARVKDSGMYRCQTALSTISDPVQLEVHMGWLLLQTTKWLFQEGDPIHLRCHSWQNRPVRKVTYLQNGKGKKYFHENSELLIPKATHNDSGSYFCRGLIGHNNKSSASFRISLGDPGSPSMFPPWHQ

[5] = target: mouse FcγRIIB protein (his-tagged) (mouse) (UniProt P08101); test: SPR (Biacore T200), his-tagged receptor captured on anti-His CM5 chip, antibody injected
mouse FcγRIIB protein (his-tagged) (mouse), sequence (P08101 30-210 limits assumed): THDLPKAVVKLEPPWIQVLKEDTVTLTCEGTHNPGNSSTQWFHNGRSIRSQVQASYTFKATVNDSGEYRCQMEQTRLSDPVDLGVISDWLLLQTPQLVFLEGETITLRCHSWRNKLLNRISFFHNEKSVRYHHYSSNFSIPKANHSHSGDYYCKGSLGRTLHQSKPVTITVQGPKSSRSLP

[6] = target: mouse FcγRIV protein (his-tagged) (mouse); test: as above

human FcγRIIB protein (his-tagged) (human), sequence (P31994 43-217 limits assumed): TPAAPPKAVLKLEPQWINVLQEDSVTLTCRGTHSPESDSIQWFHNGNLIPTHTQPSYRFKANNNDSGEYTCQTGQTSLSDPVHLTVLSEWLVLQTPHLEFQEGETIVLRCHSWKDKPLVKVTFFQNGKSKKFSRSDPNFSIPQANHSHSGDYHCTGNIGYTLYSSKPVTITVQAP
human FcγRIIIA V158 protein (his-tagged) (human), sequence (P08637 17-208 F176V limits assumed): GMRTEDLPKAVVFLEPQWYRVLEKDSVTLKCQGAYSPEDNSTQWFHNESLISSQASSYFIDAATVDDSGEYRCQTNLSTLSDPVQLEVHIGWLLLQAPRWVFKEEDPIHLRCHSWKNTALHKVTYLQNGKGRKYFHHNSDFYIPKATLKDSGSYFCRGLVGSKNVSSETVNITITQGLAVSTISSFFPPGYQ
human FcγRIIIA F158 protein (his-tagged) (human), sequence (P08637 17-208 limits assumed): as the sequence (P08637 17-208 F176V limits assumed) above, with V160F counted along it

Row | Kd [1] [µM] | Kd [2] [µM] | Kd [3] [µM] | A/I ratio (IV/IIB) [4] | Kd [5] [µM] | Kd [6] [µM] | Substance
1 | 3.23 | 0.00283 | 0.00276 | – | – | – | Fc-enhanced anti-human CTLA-4 antibody (hIgG1.DLE) (from UniProt P01857 1-330)
2 | – | – | – | 4180 | 7.11 | 0.0017 | Fc-enhanced mouse reactive anti-CTLA4 antibody (clone 9D9, mIgG2b.DLE) (from UniProt P01867 1-335)
3 | – | – | – | 95 | 5.8 | 0.0613 | anti-mouse CTLA-4 antibody, clone 9D9, mouse IgG2b (unmodified)
